Assay results from paper PMC9381478, “A context-dependent and disordered ubiquitin-binding motif” (Cellular and Molecular Life Sciences: CMLS, 2022).

Assays:
[1] = Solubility noted during NMR sample preparation; format: physicochemical; details: NMR buffer; interaction mapped at 30 µM 15N-Spd1
[2] = biological target: T1, ubiquitin (Schizosaccharomyces pombe, UniProt P0CH06); assay: NMR titration of 15N-ubiquitin (1H-15N HSQC chemical shift perturbations); format: binding, S. pombe; details: ratio of Kd values for ubiquitin
T1 construct: plasmid coding for S. pombe ubiquitin with an N-terminal 6xhistidine-tag, TEV-cleavage site as well as an N-terminal free cysteine; made in house; host or cells: E. coli BL21(DE3)
T1 sequence (P0CH06 1-76 limits assumed): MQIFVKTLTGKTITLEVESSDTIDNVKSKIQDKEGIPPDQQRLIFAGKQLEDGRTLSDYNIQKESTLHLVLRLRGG
Method: For interaction of the peptides with ^15N-ubiquitin, the lyophilized peptides were dissolved in MilliQ water and pH adjusted to 7.5. […] For the titrations of ubiquitin with each peptide, except the WT Dss1 peptide, 100 µM ubiquitin in NMR buffer was measured as one end point, and the 1 mM peptide and 100 µM ubiquitin as the other. Then, the peptide sample was titrated into the ubiquitin sample with titration points at 0, 50, 150, 300, 400, 500 and 1000 µM peptide. […] NMR samples were centrifuged 13.000×g for 5 min and transferred to either single-use 5 mm NMR tubes (Bruker) or 3 mm (Shigemi). To prepare NMR samples of ^15 N-labeled ubiquitin with full-length Dss1 and variants, lyophilized proteins were dissolved directly in the NMR buffer. The variants were each dissolved in 510 µL NMR buffer with 100 µM ubiquitin. The concentration of Dss1 in the NMR sample was determined by measuring the absorbance at 280 nm on a ND-1000 NanoDrop spectrophotometer, calibrated with the NMR buffer with 100 µM ubiquitin. The concentration of Dss1 varied between variants, depending on the purification yield. For all titrations, seven points of varying Dss1 concentration were recorded. To prepare NMR samples of ^15N-labeled ubiquitin with Spd1, Spd1 was buffer exchanged to MilliQ using a 3 kDa cut-off Amicon Ultra-0.5 ml centrifugal filter (Merk Millipore), lyophilized and resuspended in NMR buffer with 100 µM ubiquitin. […] For experiments with ubiquitin, 200 µL 1 mM ubiquitin was buffer exchanged to MilliQ water using a 3 kDa cut-off Amicon Ultra-0.5 ml centrifugal filter (Merk Millipore), lyophilized, and subsequently resuspended in 100 µL NMR buffer with 1 mM Dss1 for a final ubiquitin concentration of 2 mM and 1 mM, respectively. All samples were transferred to 3 mm (Shigemi) NMR tubes.
All NMR spectra were recorded on Bruker Avance III HD 600 MHz spectrometer with a Bruker proton-optimized quadruple resonance NMR ‘inverse’ (QCI) cryoprobe, a Bruker Avance III HD 750 MHz spectrometer with a Bruker proton-optimized triple resonance NMR ‘inverse’ (TCI) cryoprobe and a Bruker Avance Neo 800 MHz spectrometer with a Bruker carbon/nitrogen-optimized triple-resonance NMR 'observe' (TXO) cryoprobe. […] All spectra were zero-filled, apodized using cosine bells in all dimensions, Fourier transformed, and the zero-order phase was corrected manually using either nmrDraw, a component of NmrPipe or qMDD if spectra were recorded using non-linear-sampling (NLS). All spectra were analysed using the Analysis software.
The CSPs were fitted to a one-site-binding model using global fit, and the Kd-values are extracted using Eq. 2.2 Δδobs=Δδmax∙Pt+Lt+Kd-Pt+Lt+Kd^2-4Pt∙Lt^1/2/2∙Pt.
Peaks giving rise to large uncertainties in the fit, either due to weak signals or overlap, were removed after a first iteration of fitting, and the fit repeated on the remaining dataset.

Kd of full-length protein lower than for the peptide alone [2] [times]	Molecule	solubility [1]
	Spd1: intrinsically disordered S. pombe protein, sequence printed in b198 (protein, UniProt Q10585 1-124, looked up, full-length) MHSSKRVMTTKTHVEQPESSMRPQLPESIQGSLMDVGMRVRKSISTGYKSKQTTFPAYNPPLYNTVSENIALKNTAFSYEPNGTKRPFEQAIPNYNWANPPQDFEEPEWLKPFDVVMEGTNERL	low solubility
~10	full-length Dss1: recombinant full-length S. pombe Dss1 (N71C) (protein, left off: His6-SUMO, N-terminal, cleaved) MSRAALPSLENLEDDDEFEDFATENWPMKDTELDTGDDTLWENNWDDEDIGDDDFSVQLQAELKKKGVAAC	
